According to PMC2798008:

B1: agrB promoter (dsDNA)
DNA 1: ATTTAACAGTTAAGTATTTATTTCCTACAGTTAGGCAATATAATGATAAA
DNA 2: TTTATCATTATATTGCCTAACTGTAGGAAATAAATACTTAACTGTTAAAT
B2: sbi promoter (dsDNA)
DNA 1: CACTAGTTAATCTATTAGTTAACATTAGTTAATAATTAGTTAATTTCCAT
DNA 2: ATGGAAATTAACTAATTATTAACTAATGTTAACTAATAGATTAACTAGTG

Molecular target: T1, SaeRHis (Staphylococcus aureus USA300, UniProt Q2FIT4 1-228)
T1 sequence: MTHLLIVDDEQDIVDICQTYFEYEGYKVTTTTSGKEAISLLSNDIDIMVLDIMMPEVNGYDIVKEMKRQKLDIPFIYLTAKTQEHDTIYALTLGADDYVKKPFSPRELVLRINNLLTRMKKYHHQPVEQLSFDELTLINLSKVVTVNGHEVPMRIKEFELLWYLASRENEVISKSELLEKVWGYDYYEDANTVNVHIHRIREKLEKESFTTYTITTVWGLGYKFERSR
Experiment: EMSA

Binder	binding result
B1	no binding
B2	binds
